# Laboratory results taken from patent publication US20030219857.
# Legend:
# [1] = target: bovine serum albumin (BSA), native (UniProt P02769)
# [2] = target: glucose oxidase (UniProt P13006)
# [3] = system: histone protein, native
# [4] = target: modified bovine serum albumin (denatured and partially refolded) (UniProt P02769)
# [5] = system: modified histone H3 protein (denatured and partially refolded)
# [6] = target: modified ovalbumin (denatured and partially refolded) (UniProt P01012)
# [7] = system: myelin basic protein (MBP)
# Sequence of myelin basic protein (MBP) (P02687 whole entry): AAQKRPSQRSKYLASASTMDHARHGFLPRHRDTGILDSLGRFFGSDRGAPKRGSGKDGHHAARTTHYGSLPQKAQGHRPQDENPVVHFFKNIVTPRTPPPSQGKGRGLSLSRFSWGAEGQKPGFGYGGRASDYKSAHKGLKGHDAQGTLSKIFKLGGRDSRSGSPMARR
# [8] = target: ovalbumin, native (UniProt P01012)
# Sequence of ovalbumin, native (P01012 2-386): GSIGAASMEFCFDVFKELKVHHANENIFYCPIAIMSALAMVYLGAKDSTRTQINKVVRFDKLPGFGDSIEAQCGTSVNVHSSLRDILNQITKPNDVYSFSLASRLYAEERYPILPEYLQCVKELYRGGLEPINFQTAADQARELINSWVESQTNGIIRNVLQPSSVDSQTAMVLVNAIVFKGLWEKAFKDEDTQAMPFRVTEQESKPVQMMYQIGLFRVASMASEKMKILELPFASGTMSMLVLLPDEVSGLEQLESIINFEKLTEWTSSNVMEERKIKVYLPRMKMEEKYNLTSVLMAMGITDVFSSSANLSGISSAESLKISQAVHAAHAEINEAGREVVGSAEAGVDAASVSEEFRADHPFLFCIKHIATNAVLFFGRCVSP
# [9] = system: recombinant serum albumin
# Sequence of recombinant serum albumin (P02768 25-609): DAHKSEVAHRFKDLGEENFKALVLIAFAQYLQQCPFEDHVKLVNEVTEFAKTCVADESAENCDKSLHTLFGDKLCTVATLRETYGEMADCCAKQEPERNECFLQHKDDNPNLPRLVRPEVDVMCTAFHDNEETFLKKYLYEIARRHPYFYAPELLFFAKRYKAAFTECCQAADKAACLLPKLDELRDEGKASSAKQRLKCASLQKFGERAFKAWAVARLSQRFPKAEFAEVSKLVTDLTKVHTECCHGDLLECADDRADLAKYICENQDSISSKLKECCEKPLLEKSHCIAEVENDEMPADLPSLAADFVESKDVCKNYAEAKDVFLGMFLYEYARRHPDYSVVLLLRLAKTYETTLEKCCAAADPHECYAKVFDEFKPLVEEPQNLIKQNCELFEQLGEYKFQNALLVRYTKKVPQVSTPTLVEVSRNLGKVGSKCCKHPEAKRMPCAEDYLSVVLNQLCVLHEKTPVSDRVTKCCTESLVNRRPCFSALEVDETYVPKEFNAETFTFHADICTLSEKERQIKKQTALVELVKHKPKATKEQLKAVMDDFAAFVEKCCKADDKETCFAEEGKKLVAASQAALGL
# [10] = system: synthetic Bovine Serum Albumin peptide 5 (BSA5)
# [11] = system: β-amyloid peptide (1-42)
# [12] = target: T1, β-casein (UniProt P02666)
# T1 sequence: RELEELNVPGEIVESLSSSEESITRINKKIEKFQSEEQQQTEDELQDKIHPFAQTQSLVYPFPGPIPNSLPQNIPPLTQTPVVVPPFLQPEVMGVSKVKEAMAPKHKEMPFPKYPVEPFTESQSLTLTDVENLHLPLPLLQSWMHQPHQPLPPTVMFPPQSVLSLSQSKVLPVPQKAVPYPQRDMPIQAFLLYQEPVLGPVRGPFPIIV
# Sequence of bovine serum albumin (BSA), native (P02769 25-607): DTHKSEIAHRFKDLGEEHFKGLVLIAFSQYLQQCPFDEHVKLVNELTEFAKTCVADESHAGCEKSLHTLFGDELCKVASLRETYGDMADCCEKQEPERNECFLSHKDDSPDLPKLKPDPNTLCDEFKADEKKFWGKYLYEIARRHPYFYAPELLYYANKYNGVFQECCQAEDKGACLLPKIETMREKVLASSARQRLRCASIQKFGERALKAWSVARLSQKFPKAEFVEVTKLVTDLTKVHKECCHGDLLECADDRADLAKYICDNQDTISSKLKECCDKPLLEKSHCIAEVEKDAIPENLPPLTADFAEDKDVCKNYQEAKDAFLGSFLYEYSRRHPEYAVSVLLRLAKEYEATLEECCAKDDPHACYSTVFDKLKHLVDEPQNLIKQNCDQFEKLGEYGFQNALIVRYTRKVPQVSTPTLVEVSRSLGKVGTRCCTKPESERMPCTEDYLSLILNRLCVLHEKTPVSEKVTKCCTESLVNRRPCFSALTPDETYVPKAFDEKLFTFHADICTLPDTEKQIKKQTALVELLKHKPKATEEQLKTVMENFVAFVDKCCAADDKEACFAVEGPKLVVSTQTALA
# Sequence of modified bovine serum albumin (denatured and partially refolded) (P02769 25-607): as above
# Sequence of modified ovalbumin (denatured and partially refolded) (P01012 2-386): as the sequence (P01012 2-386) above
# Sequence of glucose oxidase (P13006 23-605): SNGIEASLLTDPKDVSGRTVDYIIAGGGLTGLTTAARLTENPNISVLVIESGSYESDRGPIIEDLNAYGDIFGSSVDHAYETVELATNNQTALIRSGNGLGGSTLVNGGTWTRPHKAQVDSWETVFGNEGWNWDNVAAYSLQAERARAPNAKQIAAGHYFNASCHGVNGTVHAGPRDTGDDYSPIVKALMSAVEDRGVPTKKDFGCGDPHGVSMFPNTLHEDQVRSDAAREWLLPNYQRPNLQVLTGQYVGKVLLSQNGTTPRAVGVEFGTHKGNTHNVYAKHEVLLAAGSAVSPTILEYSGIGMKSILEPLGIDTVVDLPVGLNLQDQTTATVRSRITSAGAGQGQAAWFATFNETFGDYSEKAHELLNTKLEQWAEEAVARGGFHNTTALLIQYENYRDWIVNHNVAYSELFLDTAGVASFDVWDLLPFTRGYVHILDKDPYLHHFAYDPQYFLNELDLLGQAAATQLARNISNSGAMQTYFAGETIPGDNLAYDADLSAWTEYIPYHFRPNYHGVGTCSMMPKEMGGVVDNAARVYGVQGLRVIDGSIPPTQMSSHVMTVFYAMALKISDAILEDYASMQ
protein,measurement,setting,value
"recombinant 6X-His-TGase fusion protein of Streptomyces mobaraensis ATCC 29032 (enzyme, UniProt P81453 77-407, looked up, N-terminal 6xHis tag) Protein-glutamine gamma-glutamyltransferase: DSDDRVTPPAEPLDRMPDPYRPSYGRAETVVNNYIRKWQQVYSHRDGRKQQMTEEQREWLSYGCVGVTWVNSGQYPTNRLAFASFDEDRFKNELKNGRPRSGETRAEFEGRVAKESFDEEKGFQRAREVASVMNRALENAHDESAYLDNLKKELANGNDALRNEDARSPFYSALRNTPSFKERNGGNHDPSRMKAVIYSKHFWSGQDRSSSADKRKYGDPDAFRPAPGTGLVDMSRDRNIPRSPTSPGEGFVNFDYGWFGAQTEADADKTVWTHGNHYHAPNGSLGAMHVYESKFRNWSEGYSDFDRGAYVITFIPKSWNTAPDKVKQGWP",cross-linking of native non-substrate proteins,[1],there was no cross-linking even in the presence of a large amount of the purified recombinant transglutaminase fusion proteins in the activation solution
same,cross-linking of native non-substrate proteins,[2],there was no cross-linking even in the presence of a large amount of the purified recombinant transglutaminase fusion proteins in the activation solution
same,cross-linking of native non-substrate proteins,[3],there was no cross-linking even in the presence of a large amount of the purified recombinant transglutaminase fusion proteins in the activation solution
same,cross-linking seen on SDS-PAGE,[3],complete and partial cross-linking was both observed for native histine H3 protein under the condition tested
same,cross-linking seen on SDS-PAGE,[4],"only the reactions containing the modified protein species of BSA, histine H3 protein, glucose oxidase, and ovalbumin were cross-linked by the purified recombinant SM TGase"
same,cross-linking seen on SDS-PAGE,[5],"only the reactions containing the modified protein species of BSA, histine H3 protein, glucose oxidase, and ovalbumin were cross-linked by the purified recombinant SM TGase"
same,cross-linking seen on SDS-PAGE,[6],"only the reactions containing the modified protein species of BSA, histine H3 protein, glucose oxidase, and ovalbumin were cross-linked by the purified recombinant SM TGase"
same,cross-linking of native non-substrate proteins,[7],there was no cross-linking even in the presence of a large amount of the purified recombinant transglutaminase fusion proteins in the activation solution
same,cross-linking of native non-substrate proteins,[8],there was no cross-linking even in the presence of a large amount of the purified recombinant transglutaminase fusion proteins in the activation solution
same,cross-linking seen on SDS-PAGE,[9],the cross-linking reaction containing recombinant serum albumin revealed a mixture of very high molecular weight polymers of different length
same,"cross-linking seen on SDS-PAGE, rising amounts of SM TGase",[10],"increased amount of recombinant SM TGase corresponding to an increase in cross-linked (CL) BSA5 peptide, which run as a large molecular weight polymer on the top of the separating gel"
same,"cross-linking seen on SDS-PAGE, 1, 2 and 3 hours",[11],The β-amyloid (1-42) peptide can be cross-linked by the recombinant transglutaminase as shown as a smear of a mixture of cross-linked peptides on the top of the separating gel and the disappearance of the peptide bands at the bottom of the SDS-PAGE
same,"cross-linking of a mixture of β-casein and glucose oxidase, SDS-PAGE",[12],"both protein species can be cross-linked by the purified recombinant SM TGase, as indicated by the disappearance of the two monomer bands"
same,"cross-linking of β-casein seen on SDS-PAGE, 0 mM DTT",[12],"in the absence of DTT (lane 1 and 2), the recombinant SM TGase had no cross-linking activity on β-casein"
same,"cross-linking of β-casein seen on SDS-PAGE, about 2 mM DTT",[12],the recombinant SM TGase was activated and β-casein run as a mixture of cross-linked polymer and monomer
same,"cross-linking of β-casein seen on SDS-PAGE, about 10 mM DTT",[12],the catalytic cross-linking activity of SM TGase resulted in cross-linking of all detectable β-casein substrates in the reaction
same,cross-linking seen on SDS-PAGE,[12],the cross-linked (CL) β-casein migrated as a smear on the SDS-PAGE gel indicating a mixture of high molecular weight polymers of different length
